# ± gives the standard deviation of the averaged measurements.
# System: ATP
# Assay: switch fluorescence ratio, 500 uM ATP over buffer (Cy3 cluster intensity, sum of 5 cycles each) (fold (ratio)); higher = stronger signal-on switching upon ATP binding; sequences stand for … in TCGTCGGCAGCGTCAGATGTGTATAAGAGACAGTTTTTTTTTTTTTTTTTTTTTTTTT…TC
# Conditions: aptamer strand: ATP DNA aptamer (quencher-CACCTGGGGGAGTATTGCGGAGGAAGG + anchor), 100 nM annealed; ATP concentration: 500 uM
# Summary of the method: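 Clusters with intensities outside 100-1000 RFU were excluded. The remaining Cy3-labelled switching-strand clusters on a modified Illumina MiSeq flow-cell had been annealed to 100 nM quencher-labelled ATP aptamer and imaged in selection buffer, then after 15 min with 500 uM ATP at 22 °C, for five cycles separated by NaOH stripping and re-annealing. The fluorescence ratio, averaged per switch-domain sequence, is each cluster's summed target-cycle Cy3 intensity over its summed buffer-cycle Cy3 intensity.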
# 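Note: ATP exposure 15 min at 22 °C before imaging.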
row,Sequence,switch fluorescence ratio
1,AGTTCCTTAG,1.05 ± 0.043
2,AGTTCGCTTT,0.993 ± 0.028
3,AGTTCGGATG,1 ± 0.057
4,AGTTCTTTGT,0.985 ± 0.024
5,AGTTGAAATA,0.9816 ± 0.0066
6,AGTTGAATTT,0.9885 ± 0.0016
7,AGTTGAGAG,1.03 ± 0.017
8,AGTTGAGTCT,0.981 ± 0.067
9,AGTTGAGTTA,1 ± 0.011
10,AGTTGATGGT,0.96898 ± 0.00096
11,AGTTGGATGC,0.965 ± 0.068
12,AGTTGGCTGA,0.9967 ± 0.0063
13,AGTTGGGAGC,0.991 ± 0.02
14,AGTTGGGTGG,1.04 ± 0.026
15,AGTTGGTAG,1.02 ± 0.033
16,AGTTGGTGTT,0.958 ± 0.026
17,AGTTGTAAAG,0.985 ± 0.018
18,AGTTGTCAGT,0.983 ± 0.028
19,AGTTGTCCAT,0.9767 ± 0.0079
20,AGTTGTGGTA,1.003 ± 0.01
21,AGTTGTGTTT,0.966 ± 0.043
22,AGTTGTTGG,0.982 ± 0.011
23,AGTTTAAAAG,1.01 ± 0.024
24,AGTTTACCGG,1.01 ± 0.022
25,AGTTTAGATG,0.968 ± 0.02

row,Sequence,switch fluorescence ratio
1,AGTTTAGGAC,0.985 ± 0.031
2,AGTTTATTGG,0.999 ± 0.0086
3,AGTTTCCTTT,0.978 ± 0.032
4,AGTTTCGGGT,0.9636 ± 0.0082
5,AGTTTCGGTA,0.977 ± 0.018
6,AGTTTCTTAT,0.995 ± 0.028
7,AGTTTCTTGT,0.987 ± 0.03
8,AGTTTGAAAT,1.01 ± 0.03
9,AGTTTGAGTT,1.02 ± 0.052
10,AGTTTGATG,0.986 ± 0.041
11,AGTTTGGGC,0.9604 ± 0.0015
12,AGTTTGGTGG,0.942 ± 0.067
13,AGTTTGTCCC,1.02 ± 0.0057
14,AGTTTGTGAC,0.989 ± 0.029
15,AGTTTGTGTC,0.965 ± 0.12
16,AGTTTGTTTT,0.966 ± 0.049
17,AGTTTTAGAT,1 ± 0.044
18,AGTTTTATTG,0.993 ± 0.026
19,AGTTTTCATT,1 ± 0.049
20,AGTTTTCTTC,0.962 ± 0.041
21,AGTTTTGACC,1.03 ± 0.059
22,AGTTTTGGAG,1 ± 0.015
23,AGTTTTGGTA,1.02 ± 0.064
24,AGTTTTGGTG,0.985 ± 0.01
25,AGTTTTGTGT,0.972 ± 0.0098

row,Sequence,switch fluorescence ratio
1,AGTTTTTTTG,0.99 ± 0.017
2,ATAAAAAACT,0.984 ± 0.01
3,ATAAAAAATA,1 ± 0.025
4,ATAAAAATAT,1.01 ± 0.035
5,ATAAAAATGG,1.004 ± 0.0075
6,ATAAAAATTT,1 ± 0.024
7,ATAAAAGGAT,0.973 ± 0.014
8,ATAAAATAAT,0.977 ± 0.048
9,ATAAACAAAG,0.959 ± 0.015
10,ATAAACCTTA,1.29 ± 0.28
11,ATAAAGAATG,1.01 ± 0.05
12,ATAAAGCTCT,1.01 ± 0.019
13,ATAAAGGGGA,0.984 ± 0.038
14,ATAAATTTGC,0.968 ± 0.045
15,ATAACAGAGG,1.04 ± 0.013
16,ATAACATGAC,1.21 ± 0.0044
17,ATAACGGAGT,0.9902 ± 0.0087
18,ATAACGTCGG,0.9867 ± 0.0082
19,ATAACGTTGA,0.99 ± 0.017
20,ATAAGATTGT,0.963 ± 0.058
21,ATAAGCTTCT,1.09 ± 0.073
22,ATAAGGGAGA,1 ± 0.037
23,ATAAGGGCCA,1.01 ± 0.036
24,ATAAGGGTAA,1 ± 0.013
25,ATAAGTCAAA,0.99 ± 0.016

row,Sequence,switch fluorescence ratio
1,ATAAGTGGTG,0.976 ± 0.036
2,ATAAGTTCCG,0.996 ± 0.028
3,ATAAGTTTTG,0.978 ± 0.027
4,ATAATAAGCT,1.016 ± 0.0073
5,ATAATAGAAT,0.993 ± 0.025
6,ATAATAGAGT,1.02 ± 0.024
7,ATAATAGGG,0.9773 ± 0.0019
8,ATAATATAGG,0.99 ± 0.041
9,ATAATATGTG,0.997 ± 0.029
10,ATAATATTTT,1.031 ± 0.0028
11,ATAATGGTTG,1.04 ± 0.043
12,ATAATTACTT,1.01 ± 0.018
13,ATAATTATA,1.01 ± 0.018
14,ATAATTTCTG,0.99 ± 0.016
15,ATACAAATTT,0.995 ± 0.047
16,ATACAAGTAT,0.995 ± 0.025
17,ATACACATCC,1.06 ± 0.061
18,ATACCGAGGA,1.04 ± 0.051
19,ATACGAAGGG,0.985 ± 0.059
20,ATACGGACGG,1.4 ± 0.073
21,ATACGGGGGT,1.005 ± 0.0076
22,ATACGTTGG,0.9748 ± 0.0046
23,ATACGTTTGG,1.01 ± 0.054
24,ATACTATGGT,0.989 ± 0.038
25,ATACTCAGCC,1.14 ± 0.041

# Source: the supplement of paper PMC10126150
